Data as given in paper PMC5487730, “Functional Role of Lanthanides in Enzymatic Activity and Transcriptional Regulation of Pyrroloquinoline Quinone-Dependent Alcohol Dehydrogenases in Pseudomonas putida KT2440” (mBio, 2017).
Each block holds one molecule with its values, some of them ahead of it.

Key:
[1] = target: T1, PedE (Pseudomonas putida, UniProt Q88JH5); assay: DCPIP/PMS dye-linked activity titrated with PQQ, one-site binding fit; type: biochemical; details: 10 mM ethanol, 1 mM CaCl2, 25 mM imidazole, 100 mM Tris HCl pH 8, 30°C preincubation
T1 sequence (Q88JH5 34-631): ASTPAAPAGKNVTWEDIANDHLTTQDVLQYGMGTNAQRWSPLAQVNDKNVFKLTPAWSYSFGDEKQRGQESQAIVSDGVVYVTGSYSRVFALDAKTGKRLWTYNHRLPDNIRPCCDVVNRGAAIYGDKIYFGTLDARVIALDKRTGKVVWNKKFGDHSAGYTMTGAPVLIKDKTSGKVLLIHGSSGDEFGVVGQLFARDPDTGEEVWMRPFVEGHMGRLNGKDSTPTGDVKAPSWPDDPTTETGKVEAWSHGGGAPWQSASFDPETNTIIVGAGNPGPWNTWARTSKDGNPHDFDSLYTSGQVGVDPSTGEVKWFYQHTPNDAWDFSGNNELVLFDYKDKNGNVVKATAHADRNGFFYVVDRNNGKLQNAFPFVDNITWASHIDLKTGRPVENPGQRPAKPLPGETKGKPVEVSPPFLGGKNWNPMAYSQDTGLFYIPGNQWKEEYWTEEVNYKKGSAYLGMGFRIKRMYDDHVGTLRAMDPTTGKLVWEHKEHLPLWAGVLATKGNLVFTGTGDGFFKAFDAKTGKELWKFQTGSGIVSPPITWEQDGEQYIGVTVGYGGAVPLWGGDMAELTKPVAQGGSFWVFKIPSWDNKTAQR

[2] = target: T2, PedH (Pseudomonas putida, UniProt Q88JH0); assay: as above; type: biochemical; details: 10 mM ethanol, 1 µM PrCl3, 25 mM imidazole, 100 mM Tris HCl pH 8, 30°C preincubation
T2 sequence (Q88JH0 28-595): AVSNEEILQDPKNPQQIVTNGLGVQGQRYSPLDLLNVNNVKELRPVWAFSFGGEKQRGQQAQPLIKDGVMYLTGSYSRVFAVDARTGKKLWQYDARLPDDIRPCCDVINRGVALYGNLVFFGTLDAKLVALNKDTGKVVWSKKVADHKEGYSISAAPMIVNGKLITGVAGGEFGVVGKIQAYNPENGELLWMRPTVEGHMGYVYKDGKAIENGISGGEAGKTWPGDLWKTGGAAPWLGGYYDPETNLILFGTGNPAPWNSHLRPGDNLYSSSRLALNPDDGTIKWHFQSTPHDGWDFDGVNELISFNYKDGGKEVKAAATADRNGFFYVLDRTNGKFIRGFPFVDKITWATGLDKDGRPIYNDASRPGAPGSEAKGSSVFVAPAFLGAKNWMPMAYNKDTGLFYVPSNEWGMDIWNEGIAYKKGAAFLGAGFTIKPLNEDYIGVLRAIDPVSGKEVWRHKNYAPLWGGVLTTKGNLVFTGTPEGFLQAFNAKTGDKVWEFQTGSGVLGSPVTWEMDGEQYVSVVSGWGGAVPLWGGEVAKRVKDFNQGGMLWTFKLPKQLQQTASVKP

[3] = substrate: CCO; assay: purified protein; details: 1 µM PrCl3, 1 µM PQQ, 25 mM imidazole, 500 µM PMS, 150 µM DCPIP, 100 mM Tris HCl pH 8, 30°C preincubation
[4] = substrate: CC=O; assay: DCPIP/PMS dye-linked colorimetric assay, Michaelis-Menten fit; type: biochemical, Pseudomonas putida; details: 1 µM PrCl3, 1 µM PQQ, 25 mM imidazole, 500 µM PMS, 150 µM DCPIP, 100 mM Tris HCl pH 8, 30°C preincubation
[5] = substrate: OCCc1ccccc1; assay: as above; type: biochemical, Pseudomonas putida; details: 1 µM PrCl3, 1 µM PQQ, 25 mM imidazole, 500 µM PMS, 150 µM DCPIP, 100 mM Tris HCl pH 8, 30°C preincubation

Kd [1]: 3500 nM
Kd [2]: 41 nM
Molecule: O=C(O)c1cc(C(=O)O)c2c(n1)C(=O)C(=O)c1cc(C(=O)O)[nH]c1-2 [PQQ]

B1: PedH (Pseudomonas putida KT2440) (protein)
chain: T2 sequence (Q88JH0 28-595)
Km [3]: 177 µM
Km [4]: 2261 ± 457 µM
Km [5]: 329 ± 22 µM
